According to patent US20040265972A1:

Biological target: human TSH receptor stably expressed on Chinese Hamster Ovary (CHO) cells (CHO-hTSHR clone JP09 and clone JP26) (human) (UniProt P16473)
Assay: cell-based or functional assay

Vmax (cyclic AMP production), fold increase compared to wild type TSH: 1.5 fold
in vitro activity, fold over that of the α4K/TSH-β wild type heterodimer: 3 to 4 fold
potency (cyclic AMP production), fold increase compared to wild type TSH: 200 fold
Substance: hTSH α4K/TSH-β-CTEP (heterodimer of mutant α4K subunit and human TSH-β subunit fused to the CTEP of hCG) (from UniProt P0DN86 134-165) (ligand)
